The test system of data set [1] is rat peritoneal mast cells. Description: Degranulation of rat peritoneal mast cells ex vivo. In kind it is cell-based.
Data set [2] deals with middle cerebral artery occlusion (MCAO) in rats. Kind of data set: 90 min middle cerebral artery occlusion with r-TPA 10 mg/kg infusion; brains dissected 4.5 h after reperfusion (Example 2). The format is in vivo, rat. On the procedure:
Rats were given 10 mg/kg of r-TPA, which is considered equivalent to the typical dose given to humans in thrombolysis in stroke and myocardial infarction. Two timings of r-TPA were used to investigate in rat brain the hemorrhagic conversion of infarction, the single most serious complication and hazard in clinical thrombolytic therapy. The group termed r-TPA+saline received 1-hour infusiuon of r-TPA starting 5 minutes (10% as bolus) prior to reperfusion after 90 min of middle cerebral artery occlusion (MCAO), whereas the group saline+r-TPA received r-TPA starting 1 hour after the reperfusion after 90 min of MCAO. […] Brains were dissected at 4.5 hours after reperfusion. Areas of hemorrhage were measured by microscopical image analysis on six histological sections cut through the hemispheres and added together (cf. FIG. 3)
The polymorphonuclear leukocytes (neutrophils, shown in bars, left Y-axis, of FIG. 4) were calculated on the section encompassing the basal ganglia, infarct core and penumbra.
They were also treated with 10 mg/kg of r-TPA in a 1-hour infusion starting […] (10% as bolus) before reperfusion, a dose equivalent to that used clinically in thrombolysis of human stroke and myocardial infarction. Brains were dissected at 4.5 hours after reperfusion. The amount of brain edema was measured by quantitating the areas of hemispheres on histological sections with microscopical image analysis.
In the lower panel, the total area of hemorrhagic conversion was quantitated in six sections cut through the hemispheres.

The test system of data set [3] is spontaneous intraventricular bleedings. Particulars: in vivo; cited from earlier work.

These results are taken from patent US8163734B2, “Use of a mast cell activation or degranulation blocking agent in the manufacture of a medicament for the treatment of a patient subjected to thrombolyses” (priority 2004, dated 2012).

Entries after “also recorded” stand apart in the source; their conditions may differ.

Turning to “r-TPA: alteplase (recombinant tissue plasminogen activator), a serine protease leading to plasmin formation”, in data set [1], the “degranulation of rat peritoneal mast cells” value was “degranulated”. For the same substance, the neutrophil density entry in data set [2] (both r-TPA groups compared to sham-operated rats) is “significantly increased”. The “hemorrhage formation in rat brain” value in data set [2] (r-TPA 10 mg/kg, started 5 min before or 1 hour after reperfusion, vs sham operated or saline-treated controls) is given as “substantial hemorrhage formation; also recorded: significant hemorrhage formation”. In data set [2] (r-TPA infusion), the “increase in total number of neutrophils in the tissue, ischemic hemisphere” value was “up to 3 fold” and the “increase in total number of neutrophils in the tissue, non-infarcted hemisphere” value is on record as “up to 5 fold”. Also, the “degranulation of cells consistent with mast cell morphology, non-ischemic hemisphere” value in data set [2] (r-TPA infusion 5 minutes before reperfusion, 90 minute ischemia) is reported as “up to 60%”. The “degranulation of cells consistent with mast cell morphology, ischemic hemisphere” value in data set [2] (r-TPA infusion 5 minutes before reperfusion, 90 minute ischemia, up to 50% without r-TPA) was “up to 70%”. Moreover, the “rates of secondary brain hemorrhages” value in data set [3] is reported as “more than doubles”.
